# Measurements: patent US20170204140A1, “ANTAGONISTIC PEPTIDES” (Deakin University, priority 2014, published 2017)
# Ends that are not written are not given here.
# Assays:
# CHO-APP cells = experiment: Aβ secretion from CHO-APP cells, sandwich ELISA; type: cell-based, Chinese hamster; conditions: 5 hrs treatment; 1 nM to 1 μM
# Description: Cells were treated for 5 hrs with compound concentrations ranging from 1 nM to 1 μM. Aβ secreted in the cell media was quantified using a sandwich ELISA. Data are calculated relative to Aβ secreted from control cells treated with DMSO (vehicle) alone.
# Cells are seeded in 12-well plates and treated for 6-24 hrs with peptide or vehicle. After treatment, the cells are examined under a light microscope to evaluate toxicity. Culture media is collected, centrifuged and stored at −20° C. for Aβ ELISA and for sAPPβ analysis. Cells are harvested in PBS and cell pellets collected by centrifugation and frozen at −80° C. until use. Pellets are homogenized in RIPA buffer (0.1% SDS, 0.5% sodium deoxycholate, 1% Triton X-100, 150 mM NaCl in 50 mM Tris-HCl, pH 7.4) to assay for BACE1 enzymatic activity. The data is normalised to protein concentration determined by the BCA.
# 0.5 μg of mouse monoclonal antibody WO2 (Aβ1-16) is coated in 384-well plates. After blocking with hydrolysed casein and washing with PBS containing 0.05% Tween 20 (PBS-T), biotinylated IE8 antibody (Aβ18-22) (20 ng dilution in 10 μL blocking buffer) is added followed by culture media samples (50 μL/well). A standard curve of Aβ peptide (0.03-3 ng/well) is run in parallel. […] The plates are read in a Wallac Victor 2 Multicounter instrument and data calculated relative to the Aβ peptide standard curve.
# IL-13 binding to IL-4Rα = target: T1, IL-13 binding to IL-4Rα (Homo sapiens, UniProt P24394); experiment: Inhibition ELISA of IL-13 binding to IL-4Rα; conditions: pre-incubation of IL-4Rα with nM amounts of the peptide
# T1 construct: purchased SBH Sciences (IL-4Rα); Sigma-Aldrich (IL-13)
# T1 sequence (P24394 26-232 limits assumed): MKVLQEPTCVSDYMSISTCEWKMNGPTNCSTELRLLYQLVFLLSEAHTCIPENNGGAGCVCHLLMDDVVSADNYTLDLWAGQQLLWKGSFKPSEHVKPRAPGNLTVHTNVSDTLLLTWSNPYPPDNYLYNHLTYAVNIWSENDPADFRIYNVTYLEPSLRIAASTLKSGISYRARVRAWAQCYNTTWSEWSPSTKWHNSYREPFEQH
# Text: (§1) After extensive washing, HRP will be colorimetrically detected with the substrate o-phenylenediamine (Sigma-Aldrich) and read at 492 nm, according to our established protocols.
# endogenous BACE1 = target: T2, endogenous BACE1 (Homo sapiens, UniProt P56817); experiment: BACE1 enzyme activity assay on M17 human neuroblastoma cell lysate; type: biochemical; conditions: 200 nM peptide
# T2 construct: endogenous in cells; host or cells: M17 human neuroblastoma cells (lysate)
# T2 sequence (P56817 46-501): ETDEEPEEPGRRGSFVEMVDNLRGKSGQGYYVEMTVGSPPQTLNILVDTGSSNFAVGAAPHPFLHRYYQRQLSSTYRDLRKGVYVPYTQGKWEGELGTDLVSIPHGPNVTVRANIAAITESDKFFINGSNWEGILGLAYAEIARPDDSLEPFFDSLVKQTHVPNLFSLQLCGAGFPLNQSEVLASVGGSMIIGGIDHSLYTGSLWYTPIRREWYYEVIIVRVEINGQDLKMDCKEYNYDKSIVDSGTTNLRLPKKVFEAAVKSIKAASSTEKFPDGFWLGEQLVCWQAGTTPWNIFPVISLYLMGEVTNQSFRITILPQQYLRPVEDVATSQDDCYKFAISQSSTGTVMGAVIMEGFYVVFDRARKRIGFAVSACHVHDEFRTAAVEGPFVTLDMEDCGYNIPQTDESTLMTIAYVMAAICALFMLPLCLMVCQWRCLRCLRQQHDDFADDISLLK
# Description: The M17 cell lysate was subjected to BACE1 enzyme activity assay and was read on a fluorometer in duplicate with one experimental group of a positive control, without the peptide inhibitor (0 nM), and an experimental group, with an added 200 nM concentration of the peptide inhibitor. […] The mean fluorescent units are a representation of the cleaved product of APP by BACE1 (P<0.0 5). This indicates the production of BACE1 in cultured human neuronal cells and the usefulness of this cell line.
# The M17 cell lysate was subjected to BACE1 enzyme activity assay and was read on a fluorometer in duplicate with one experimental group of a positive control, without the peptide inhibitor (0 nM), and an experimental group, with an added 200 nM concentration of the peptide inhibitor. […] The mean fluorescent units are a representation of the cleaved product of APP by BACE1 (P<0.0 5).
# The CelLytic extraction kit (Sigma-Aldrich) is used to prepare total protein extracts from M17 cells, with protein concentrations determined by BCA protein assay (Thermo Scientific Pierce, NH, USA), following the manufacturer's instructions.
# Cell lysates obtained above are subjected to BACE1 enzyme assays, as described above.
# BACE1 = BACE1 (Homo sapiens, UniProt P56817); experiment: BACE1 inhibition assay based on cleavage of fluorogenic APP substrate; type: biochemical; conditions: peptide 100 nM and 200 nM; versus 0 nM control
# Sequence of BACE1 (P56817 46-501, species assumed): as the sequence (P56817 46-501) above
# Description: The peptide concentrations of 100 nM and 200 nM show a significant (*) difference to the upper limit when compared with the negative control. The mean fluorescent units are a representation of the cleaved product of APP by BACE1 (P<0.0 5).
# A fluorescent BACE1 activity assay kit (Sigma-Aldrich, NSW, Australia), is used to not only show the cleavage of APP by BACE1, but also the inhibitors' ability to prevent cleavage of APP by BACE1. A measurement of fluorescence expresses the resulting cleaved APP product, which indirectly measures the activity of BACE1 in cleaving APP. Assays are conducted in triplicate with (1, 10, 100 and 1000 nM) or without the peptide inhibitors, as negative controls. Commercially available BACE1 inhibitors (STA-200 and Merck Compound IV) are used as references. Data derived from assays at various substrate concentrations are used to determine Ki values and the mode of inhibition (competitive/allosteric) using the Lineweaver-Burk method.
# IL-4 binding to IL-4Rα = target: T3, IL-4 binding to IL-4Rα (Homo sapiens, UniProt P24394); experiment: Inhibition ELISA of IL-4 binding to IL-4Rα; conditions: pre-incubation of IL-4Rα with nM amounts of the peptide
# T3 construct: purchased SBH Sciences (IL-4Rα); Sigma-Aldrich (IL-4)
# T3 sequence (P24394 26-232 limits assumed): T1 sequence (P24394 26-232 limits assumed)
# Text: as §1
# [1] = system: JAK-STAT6 signaling in HEK-Blue cells; experiment: JAK-STAT6 signaling in HEK-Blue cells (SEAP reporter, QUANTI-Blue); type: cell-based
# Description: Positive Control (PC) included cells treated with IL-4 cytokine alone. Control 1 (C1) included cells incubated with peptide antagonist only and Control 2 (C2) included cells without any treatment. The results represent the mean of 3 replicates within an experiment and the error bars show standard deviation. P<0.05* denotes significance of optical density (OD) readings compared to positive control (PC).
# The percentage values represented here are a reflection of treatments used in FIG. 9 (75 μM, 150 μM and 225 μM). […] Positive control is denoted at 0%, which is used as a referral point for the standard value at which inhibition begins.
# Activation of this pathway leads to SEAP secretion in the supernatant and is easily detected using QUANTI-Blue medium that changes colour to purple/blue in the presence of SEAP, following manufacturer's instructions. Cells are grown and maintained in DMEM medium with 10% FCS at 37° C. in a 5% CO2-humidified chamber, following the manufacturer's instructions and established cell culture techniques. […]
# In FIG. 9, six treatment wells were used in total; 4 wells treated with peptide N1 and 2 wells without peptide as positive and negative controls (shown in results section). […] The subsequent results were read using an xMark microplate absorbance spectrophotometer (Bio-Rad) at a wavelength of 640 nm
Compound,Aβ secreted in the cell media relative to DMSO control (CHO-APP cells),reduction of IL-13 binding to IL-4Rα (IL-13 binding to IL-4Rα) [%],inhibition of endogenous BACE1 activity (endogenous BACE1),inhibition of BACE1 activity (BACE1),reduction of IL-4 binding to IL-4Rα (IL-4 binding to IL-4Rα) [%],"inhibition of JAK-STAT6 signaling ([1]; 225 μM peptide, IL-4 stimulated HEK-Blue cells, dose-dependent (75, 150, 225 μM))",JAK-STAT6 signaling triggered by peptide alone ([1]; peptide without IL-4)
C[C@@H](NC(=O)c1cc(C(=O)N[C@@H](Cc2ccccc2)[C@H](O)CNC2CC2)cc(N(C)S(C)(=O)=O)c1)c1ccccc1 [Compound IV],inhibits Aβ secretion in a dose dependent manner,–,–,–,–,–,–
FHESWPTFLSPS [peptide antagonist],–,50,more than 50%,more than 40%,25,up to 59%,did not trigger a non-specific JAK-STAT6 signaling
